Results published in article PMC5998909.

Biological target: Recombinant Art v 3.0201, non-specific lipid transfer protein of Artemisia vulgaris (mugwort) pollen (Artemisia vulgaris (mugwort)) (UniProt C4MGG9)
Test: crystal structure + other: NMR spectroscopy; recombinant non-tagged Art v 3.0201; X-ray crystallography of the non-labelled protein, NMR of the 13C/15N-labelled protein

- stoichiometry N: 2
Substance: Recombinant Art v 3.0201, non-specific lipid transfer protein of Artemisia vulgaris (mugwort) pollen (from UniProt C4MGG9 1-114) (non-labelled protein)
